Patent publication US20060104978A1, “Methods and compositions for PDGF-C activation and inhibition” (LUDWIG INSTITUTE FOR CANCER RESEARCH, priority 2003, published 2006)

How the values were obtained:
latent PDGF-DD = latent PDGF-DD (Homo sapiens, UniProt Q9GZP0); test: In vitro cleavage of recombinant latent PDGF-DD with purified tPA; type: biochemical; design: Recombinant His6-tagged human PDGF-CC species and full-length PDGF-DD were expressed; made in house; conditions: 0.2-20 μg/ml tPA, 4 hours at 37° C., CNBr activated fibrinogen
From the text: (§1) A cotransfection assay was established to identify serine proteases able to cleave and activate latent PDGF-CC. Expression plasmids encoding the relevant enzymes and full-length PDGF-C were cotransfected into COS-1 cells, and aliquots of the conditioned media from the transfectants were subjected to SDS-PAGE and immunoblotting using antibodies to the growth factor domain of PDGF-C. […] As a specificity control, the ability of tPA and NT to use full-length PDGF-DD as the substrate in the cotransfection assay was analysed. […] One difference in the latter results, as compared with the results from the cotransfection assay, was that purified tPA generated a second intermediate species of 32 kDa using latent PDGF-CC as the substrate. It is possible that this intermediate is the result of digestion by plasmin contamination in the tPA preparation, since the size of the fragment is similar to that of plasmincleaved PDGF-CC previously reported (Li et al, 2000).
Recombinant latent PDGF-CC and PDGF-DD were digested with human tPA in 100 mM Tris-HCl pH 7.5, 0.1% Tween 20, and 0.1 mg/ml CNBr activated fibrinogen (Sigma) for 4 hours at 37° C. using 0.2-20 μg/ml tPA purified from human melanoma cells (T7776, Sigma). The digestions were analyzed by SDS-PAGE under reducing conditions and immunoblotted using affinity-purified antibodies against PDGF-C and PDGF-D, respectively (see above).

PDGFR-α = biological target: T1, PDGFR-α (Homo sapiens, UniProt P16234); test: PDGFR-α tyrosine phosphorylation in PAE cells stably expressing PDGFR-α; type: cell-based; conditions: conditioned medium from transfected COS-1 cells applied to PAE cells, 120 min on ice
T1 construct: expressed in transfected cells
Procedure: It was verified that the growth factor domain in PDGF-CC released by tPA-mediated proteolysis is an efficient PDGFR-A ligand. Conditioned media from transfected COS-1 cells were applied onto porcine aortic endothelial (PAE) cells with stable expression of PDGFR-α (FIG. 5A).
To understand the structural requirements for receptor-binding and activation of PDGF-CC, the series of truncated mutants of PDGF-CC generated above were analysed for their ability to activate PDGFR-α in PAE cells. Conditioned media containing the truncated mutants of PDGF-CC were applied onto PAE cells, and the activation of the receptors was monitored by induction of receptor tyrosine phosphorylation (FIG. 6D).
To monitor growth factor-induced tyrosine phosphorylation of PDGFR-α, serum-starved PAE cells stably expressing human PDGFR-α were incubated for 120 min on ice with conditioned medium from COS-1 cells transfected with full-length PDGF-C in the absence or presence of tPA. Alternatively, primary wild-type and tPA-deficient fibroblasts were stimulated with 100 ng/ml activated PDGF-CC protein. The cells were lysed as described previously (Li et al, 2000) and PDGFR-α was immunoprecipitated using a specific antiserum (Eriksson et al, 1992). […] Tyrosinephosphorylated receptors were detected by immunoblotting using an antiphosphotyrosine antibody (PY99, Santa Cruz). […]

latent PDGF-CC = latent PDGF-CC (Homo sapiens, UniProt Q9NRA1); test: Cotransfection assay in COS-1 cells: protease plus full-length PDGF-C; type: cell-based; design: cotransfected with full-length PDGF-C (Li et al, 2000), full-length PDGF-D (Bergsten et al, 2001); expressed in transfected cells; host or cells: COS-1 cells; conditions: COS-1 conditioned medium, immunoblot, 22 kDa species under reducing conditions
From the text: as §1, with “2000). […]” for “2000).”
To test the endogenous expression of PDGF-CC, subconfluent AG1523 cells and primary fibroblast cultures were cultured in serum-free DMEM overnight. […] In the case of the primary cultures, total protein concentration was measured and normalized (Bradford, 1976). […]

latent PDGF-CC, sequence (Q9NRA1 23-345): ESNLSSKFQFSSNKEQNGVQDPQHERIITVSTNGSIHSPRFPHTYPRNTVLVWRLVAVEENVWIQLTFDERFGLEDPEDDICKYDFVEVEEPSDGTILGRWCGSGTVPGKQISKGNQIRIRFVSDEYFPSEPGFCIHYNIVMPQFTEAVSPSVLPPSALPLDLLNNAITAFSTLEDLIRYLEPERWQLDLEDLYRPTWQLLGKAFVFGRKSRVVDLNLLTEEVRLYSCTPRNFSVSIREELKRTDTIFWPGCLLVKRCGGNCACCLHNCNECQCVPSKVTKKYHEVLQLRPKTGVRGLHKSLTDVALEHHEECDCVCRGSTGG
T1 sequence (P16234 24-1089): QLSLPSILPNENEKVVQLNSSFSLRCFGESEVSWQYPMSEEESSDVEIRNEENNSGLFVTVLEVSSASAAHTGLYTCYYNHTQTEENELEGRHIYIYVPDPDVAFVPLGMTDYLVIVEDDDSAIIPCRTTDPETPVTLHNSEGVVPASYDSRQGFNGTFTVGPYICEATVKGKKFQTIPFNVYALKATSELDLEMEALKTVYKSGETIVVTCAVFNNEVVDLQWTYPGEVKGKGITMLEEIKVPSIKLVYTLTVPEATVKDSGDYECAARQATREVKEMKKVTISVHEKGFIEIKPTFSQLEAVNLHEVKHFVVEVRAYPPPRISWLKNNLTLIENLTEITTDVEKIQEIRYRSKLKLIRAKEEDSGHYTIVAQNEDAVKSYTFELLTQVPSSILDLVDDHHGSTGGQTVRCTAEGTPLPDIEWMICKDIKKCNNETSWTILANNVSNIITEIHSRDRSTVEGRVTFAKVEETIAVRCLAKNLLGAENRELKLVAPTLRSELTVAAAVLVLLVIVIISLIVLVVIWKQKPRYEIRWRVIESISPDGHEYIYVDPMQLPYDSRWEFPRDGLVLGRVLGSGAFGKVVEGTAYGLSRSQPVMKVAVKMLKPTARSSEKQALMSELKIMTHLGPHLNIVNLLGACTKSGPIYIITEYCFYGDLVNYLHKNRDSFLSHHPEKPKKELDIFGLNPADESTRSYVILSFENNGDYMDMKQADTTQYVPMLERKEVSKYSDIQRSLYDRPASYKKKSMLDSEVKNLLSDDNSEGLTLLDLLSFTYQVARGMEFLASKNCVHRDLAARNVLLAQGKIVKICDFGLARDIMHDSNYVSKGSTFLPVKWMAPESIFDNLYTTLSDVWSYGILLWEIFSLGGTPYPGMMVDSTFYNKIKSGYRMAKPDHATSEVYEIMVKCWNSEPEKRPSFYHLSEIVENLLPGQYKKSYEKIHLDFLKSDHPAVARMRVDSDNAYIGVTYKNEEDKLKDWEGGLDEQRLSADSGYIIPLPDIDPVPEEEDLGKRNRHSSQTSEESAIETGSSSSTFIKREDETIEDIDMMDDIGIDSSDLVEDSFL

tPA: tissue plasminogen activator, secreted serine protease; expressed, purified from human melanoma cells or recombinant
cleavage of recombinant latent PDGF-DD by purified tPA (latent PDGF-DD): but not PDGF-DD, is a substrate for tPA
PDGFR-α activation (receptor tyrosine phosphorylation) (PDGFR-α): failed to induce receptor activation
cleavage of latent PDGF-CC by the coexpressed protease (latent PDGF-CC): released the growth factor domain of latent PDGFCC
